Assay results taken from patent publication US20140256621A1 (published 2014).

T1: chimeric Hu-Leptin/Mu-EPO receptor (human; mouse, UniProt P48357 22-839; P14753 250-507)
T1 sequence (looked up): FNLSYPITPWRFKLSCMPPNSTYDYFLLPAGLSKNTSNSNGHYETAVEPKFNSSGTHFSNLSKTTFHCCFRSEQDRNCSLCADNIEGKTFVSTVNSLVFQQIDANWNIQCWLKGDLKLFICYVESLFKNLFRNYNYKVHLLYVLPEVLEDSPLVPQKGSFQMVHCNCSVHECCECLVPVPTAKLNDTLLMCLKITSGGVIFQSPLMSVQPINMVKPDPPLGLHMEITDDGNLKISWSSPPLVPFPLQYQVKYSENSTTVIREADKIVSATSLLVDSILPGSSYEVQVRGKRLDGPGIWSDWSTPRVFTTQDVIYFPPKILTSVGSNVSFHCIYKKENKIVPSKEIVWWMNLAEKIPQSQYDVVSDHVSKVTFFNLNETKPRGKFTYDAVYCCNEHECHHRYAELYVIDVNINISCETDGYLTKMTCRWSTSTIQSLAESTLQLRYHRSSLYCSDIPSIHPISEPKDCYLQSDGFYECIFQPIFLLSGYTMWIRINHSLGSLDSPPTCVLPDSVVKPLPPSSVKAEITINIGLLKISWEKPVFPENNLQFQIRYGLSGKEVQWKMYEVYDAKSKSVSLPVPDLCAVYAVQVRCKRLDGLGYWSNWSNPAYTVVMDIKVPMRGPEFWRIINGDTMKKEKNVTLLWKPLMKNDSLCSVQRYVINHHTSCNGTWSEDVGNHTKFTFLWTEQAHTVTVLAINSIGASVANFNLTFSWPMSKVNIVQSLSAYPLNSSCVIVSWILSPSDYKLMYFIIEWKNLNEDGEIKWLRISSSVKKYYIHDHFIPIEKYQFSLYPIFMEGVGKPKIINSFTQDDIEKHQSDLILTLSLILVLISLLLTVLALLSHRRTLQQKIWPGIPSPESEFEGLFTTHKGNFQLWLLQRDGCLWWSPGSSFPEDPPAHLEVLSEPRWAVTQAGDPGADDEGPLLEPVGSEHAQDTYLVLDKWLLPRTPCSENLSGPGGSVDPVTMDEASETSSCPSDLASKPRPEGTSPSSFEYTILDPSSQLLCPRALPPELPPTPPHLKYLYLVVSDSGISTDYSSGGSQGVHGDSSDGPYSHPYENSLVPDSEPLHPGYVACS


Assays:
[1] = biological target: T1, chimeric Hu-Leptin/Mu-EPO receptor; experiment: cell-based or functional assay
human serum albumin = biological target: T2, human serum albumin (human, UniProt P02768 25-609); experiment: SPR (BioRad ProteOn XPR36), albumin amine-coupled on GLC chip, polypeptide injected from 5 nM in 3-fold dilutions, 25 C; relative KD
T2 construct: also called HSA; Albucult (Novozyme)
T2 sequence (P02768 25-609 limits assumed): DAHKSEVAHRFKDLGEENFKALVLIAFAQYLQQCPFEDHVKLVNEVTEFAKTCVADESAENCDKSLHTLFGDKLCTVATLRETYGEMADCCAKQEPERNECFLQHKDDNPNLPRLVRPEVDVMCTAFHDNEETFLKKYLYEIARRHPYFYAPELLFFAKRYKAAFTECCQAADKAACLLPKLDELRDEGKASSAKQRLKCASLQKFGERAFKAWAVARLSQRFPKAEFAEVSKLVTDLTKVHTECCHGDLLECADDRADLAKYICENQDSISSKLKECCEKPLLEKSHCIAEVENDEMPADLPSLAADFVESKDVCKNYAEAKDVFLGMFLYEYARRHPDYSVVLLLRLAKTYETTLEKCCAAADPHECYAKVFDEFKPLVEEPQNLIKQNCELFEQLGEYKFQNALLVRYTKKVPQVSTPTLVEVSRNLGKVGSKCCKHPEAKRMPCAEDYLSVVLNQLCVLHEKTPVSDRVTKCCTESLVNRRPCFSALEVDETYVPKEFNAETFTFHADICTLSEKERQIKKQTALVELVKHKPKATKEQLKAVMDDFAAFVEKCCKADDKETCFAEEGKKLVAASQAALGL
Procedure: (§1) All studies were conducted on a BioRad ProteOn XPR36 system using a GLC sensor chip at 25 degrees C. For amine coupling the GLC chip was activated for 5 minutes using a 1:1 mixture of sulfo-NHS/EDC diluted 30-fold from the initial stock in water as shown below. Each albumin sample was diluted to 25 ug/ml in 10 mM Na Acetate pH 5.0 and injected for 5 minutes over separate sensor surfaces. Each surface was then blocked with 1 M ethanolamine pH 8.5. Each albumin was coupled at a density of 2000-5000 in resonance units.
(§2) The binding of an engineered polypeptide was tested using 5 nM as the highest concentration in a three-fold dilution series. The running buffer contained 10 mM HEPES pH 7.4, 150 mM NaCl, 3 mM EDTA and 0.005% tween-20. All samples were tested using a 3-fold dilution series. Each concentration series was tested in duplicate. The dissociation phase for the highest concentration […] was monitored for 3 hours.

Monkey SA = biological target: T3, Monkey SA (monkey); experiment: as above
T3 construct: also called monkey serum albumin
T3 sequence (A2V9Z4 25-608): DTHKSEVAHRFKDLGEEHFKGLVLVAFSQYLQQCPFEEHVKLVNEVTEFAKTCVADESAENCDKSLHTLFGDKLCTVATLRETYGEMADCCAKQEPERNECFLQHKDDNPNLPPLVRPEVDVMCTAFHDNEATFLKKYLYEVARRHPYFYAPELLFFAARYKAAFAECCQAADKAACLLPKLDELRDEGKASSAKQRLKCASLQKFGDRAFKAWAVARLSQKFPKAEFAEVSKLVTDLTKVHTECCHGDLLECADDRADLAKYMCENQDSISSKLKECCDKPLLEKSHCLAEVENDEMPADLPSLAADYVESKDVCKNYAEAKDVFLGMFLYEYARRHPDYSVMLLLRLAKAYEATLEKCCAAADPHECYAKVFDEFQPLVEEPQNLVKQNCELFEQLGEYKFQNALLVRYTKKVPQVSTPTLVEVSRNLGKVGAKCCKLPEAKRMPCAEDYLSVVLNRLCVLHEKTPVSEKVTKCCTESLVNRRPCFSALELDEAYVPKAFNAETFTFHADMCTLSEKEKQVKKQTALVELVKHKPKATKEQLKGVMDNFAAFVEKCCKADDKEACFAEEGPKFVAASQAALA
Procedure: as §1, §2

Rat SA = biological target: T4, Rat SA (rat, UniProt P02770 25-608); experiment: as above
T4 construct: also called rat serum albumin
T4 sequence (P02770 25-608 limits assumed): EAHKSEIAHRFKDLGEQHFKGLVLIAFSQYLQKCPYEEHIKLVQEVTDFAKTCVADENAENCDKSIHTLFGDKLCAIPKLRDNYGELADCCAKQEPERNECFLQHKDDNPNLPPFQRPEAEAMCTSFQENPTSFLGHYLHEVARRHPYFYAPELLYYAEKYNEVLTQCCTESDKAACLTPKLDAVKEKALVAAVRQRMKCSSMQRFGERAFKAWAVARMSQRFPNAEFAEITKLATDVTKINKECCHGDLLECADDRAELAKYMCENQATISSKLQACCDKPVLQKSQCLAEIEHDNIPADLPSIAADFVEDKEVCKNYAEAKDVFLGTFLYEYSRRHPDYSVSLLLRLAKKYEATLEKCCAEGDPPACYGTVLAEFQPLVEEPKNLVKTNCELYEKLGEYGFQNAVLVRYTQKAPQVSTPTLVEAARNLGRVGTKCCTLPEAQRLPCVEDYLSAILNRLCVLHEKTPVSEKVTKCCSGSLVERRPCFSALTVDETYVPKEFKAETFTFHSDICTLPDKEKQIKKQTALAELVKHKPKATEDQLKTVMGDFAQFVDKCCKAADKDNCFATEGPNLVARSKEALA
Procedure: as §1, §2

Mouse SA = biological target: T5, Mouse SA (mouse, UniProt P07724 25-608); experiment: as above
T5 construct: also called mouse serum albumin
Procedure: as §1, §2

Dog SA = biological target: T6, Dog SA (dog, UniProt P49822 25-608); experiment: as above
T6 construct: also called dog serum albumin
T6 sequence (P49822 25-608 limits assumed): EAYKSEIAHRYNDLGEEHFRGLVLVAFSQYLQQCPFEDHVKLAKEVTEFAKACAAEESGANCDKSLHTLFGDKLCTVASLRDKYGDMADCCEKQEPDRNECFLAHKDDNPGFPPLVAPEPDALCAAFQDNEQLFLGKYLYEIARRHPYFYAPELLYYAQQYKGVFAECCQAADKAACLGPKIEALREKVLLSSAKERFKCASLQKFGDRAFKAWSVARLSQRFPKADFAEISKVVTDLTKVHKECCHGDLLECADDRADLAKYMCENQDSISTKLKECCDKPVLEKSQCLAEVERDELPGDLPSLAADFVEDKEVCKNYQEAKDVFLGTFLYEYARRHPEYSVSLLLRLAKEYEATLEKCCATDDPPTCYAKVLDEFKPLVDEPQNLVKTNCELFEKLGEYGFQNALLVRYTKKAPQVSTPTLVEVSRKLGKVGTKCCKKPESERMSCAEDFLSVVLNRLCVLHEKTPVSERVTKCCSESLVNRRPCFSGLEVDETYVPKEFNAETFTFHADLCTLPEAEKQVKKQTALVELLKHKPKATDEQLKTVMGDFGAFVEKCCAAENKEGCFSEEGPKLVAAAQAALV
Procedure: as §1, §2

Binder	EC50 nM (Obeca STAT5 assay) [1] [nM]	other results
Cmpd 1 (other) MGSLAEAKEAANAELDSYGVSDFYKRLIDKAKTVEGVEALKDAILAALPTGGGGASVPIQKVQDDTKTLIKTIVTRINDISHTQSVSSKQKVTGLEFIPGLHPILTLSKMDQTLAVYQQILTSMPSRNVIQISNDLENLRDLLHVLAFSKSCHLPQASGLETLESLGGVLEASGYSTEVVALSRLQGSLQDMLQQLDLSPGC	0.908	
Cmpd 55 (other) MGSLAEAKVLANRELDKYGVSDFYKRLIDKAKTVEGVEALKDAILAALPTGGGGSGGGSGGGSGGGSASVPIQKVQDDTKTLIKTIVTRINDISHTQSVSSKQKVTGLEFIPGLHPILTLSKMDQTLAVYQQILTSMPSRNVIQISNDLENLRDLLHVLAFSKSCHLPQASGLETLESLGGVLEASGYSTEVVALSRLQGSLQDMLQQLDLSPGC	0.639	
Cmpd 48 (other) MGSLAEAKEAANRELDAYGVSDFYKRLIDKAKTVEGVEALKDAILAALPTGGGGSGGGSGGGSGGGSASVPIQKVQDDTKTLIKTIVTRINDISHTQSVSSKQKVTGLEFIPGLHPILTLSKMDQTLAVYQQILTSMPSRNVIQISNDLENLRDLLHVLAFSKSCHLPQASGLETLESLGGVLEASGYSTEVVALSRLQGSLQDMLQQLDLSPGC	0.553	
Cmpd 41 (other) MGSLAQAKEAANRELDSYGVSDFYKRLIDKAKTVEGVEALKDAILAALPTGGGGSGGGSGGGSGGGSASVPIQKVQDDTKTLIKTIVTRINDISHTQSVSSKQKVTGLEFIPGLHPILTLSKMDQTLAVYQQILTSMPSRNVIQISNDLENLRDLLHVLAFSKSCHLPQASGLETLESLGGVLEASGYSTEVVALSRLQGSLQDMLQQLDLSPGC	0.506	
Cmpd 63 (printed with SEQ ID NO: 659 in Table X4) (other) MGSLAEAKEAANAELDSYGVSDFYKRLIDKAKTVEGVEALKDAILAALPTGGGGSGGGSGGGSGGGSASVPIQKVQDDTKTLIKTIVTRINDISHTQSVSSKQKVTGLEFIPGLHPILTLSKMDQTLAVYQQILTSMPSRNVIQISNDLENLRDLLHVLAFSKSCSLPQASGLETLESLGEVLEASGYSTEVVALSRLQGSLQDILQQLDLSPEC	0.785	
Cmpd 64 (other) MLAEAKEAANAELDSYGVSDFYKRLIDKAKTVEGVEALKDAILAALPTGGGGSGGGSGGGSGGGSASPIQRVQDDTKTLIKTIITRINDISPPQGVSSRPRVAGLDFIPRVQSVRTLSGMDQILATYQQILTSLQSRNVIQISNDLENLRDLLHVLAFSKSCPVPRARGSDTIKGLGNVLRASVHSTEVVALSRLKAALQDMLRQLDRNPGC	0.634	
Cmpd 9 (other) MGSLAEAKEAANAELDSYGVSDFYKRLIDKAKTVEGVEALKDAILAALPTGGGGSGGGSGGGSGGGSASPIQRVQDDTKTLIKTIITRINDISPPQGVSSRPRVAGLDFIPRVQSVRTLSGMDQILATYQQILTSLQSRNVIQISNDLENLRDLLHVLAFSKSCPVPRARGSDTIKGLGNVLRASVHSTEVVALSRLKAALQDMLRQLDRNPGC	0.433	

Second part, led by results:

EC50 nM (Obeca STAT5 assay) [1] [nM]	Binder	other results
0.71	Cmpd 68 (other) MLAEAKEAANAELDSYGVSDFYKRLIDKAKTVEGVEALKDAILAALPTGGGGSGGGSGGGSGGGSASVPIQKVQDDTKTLIKTIVTRINDISHTQSVSSKQKVTGLEFIPGLHPILTLSKMDQTLAVYQQILTSMPSRNVIQISNDLENLRDLLHVLAFSKSCHLPQASGLETLESLGGVLEASGYSTEVVALSRLQGSLQDMLQQLDLSPGC	
0.725	PEP07986-neutral linker-A500 (Compound 2) (other, also called Cmpd 2; PEP07986-Neutral-A500) MGSLAEAKEAANAELDSYGVSDFYKRLIDKAKTVEGVEALKDAILAALPTGGGGSGGGSGGGSGGGSASVPIQKVQDDTKTLIKTIVTRINDISHTQSVSSKQKVTGLEFIPGLHPILTLSKMDQTLAVYQQILTSMPSRNVIQISNDLENLRDLLHVLAFSKSCHLPQASGLETLESLGGVLEASGYSTEVVALSRLQGSLQDMLQQLDLSPGC	Kd (human serum albumin): 0.152 nM; Kd (Monkey SA): 0.405 nM; Kd (Rat SA): 0.023 nM; Kd (Mouse SA): 1.66 nM; Kd (Dog SA): 1.31 nM
1.26	Cmpd 71 (other) MLAEAKEAANAELDSYGVSDFYKRLIDKAKTVEGVEALKDAILAALPTGGGGSGGGSGGGSGGGSASPIQRVQDDTKTLIKTIITRINDISHTQSVSSKQKVTGLDFIPGLHPILTLSGMDQILATYQQILTSLQSRNVIQISNDLENLRDLLHVLAFSKSCPVPRARGSDTIKGLGNVLRASVHSTEVVALSRLKAALQDMLRQLDRNPGC	
0.941	Cmpd 70 (other) MGSLAEAKVLANRELDKYGVSDFYKRLIDKAKTVEGVEALKDAILAALPTGGEGGEGGEGGEGGEGGEASVPIQKVQDDTKTLIKTIVTRINDISHTQSVSSKQKVTGLEFIPGLHPILTLSKMDQTLAVYQQILTSMPSRNVIQISNDLENLRDLLHVLAFSKSCHLPQASGLETLESLGGVLEASGYSTEVVALSRLQGSLQDMLQQLDLSPGC	
0.832	Cmpd 69 (other) MGSLAEAKVLANRELDKYGVSDFYKRLIEKAKTVEGVEALKEAILAALPTGGEGGEGGEGGEGGEGGEASVPIQKVQDDTKTLIKTIVTRINDISHTQSVSSKQKVTGLEFIPGLHPILTLSKMDQTLAVYQQILTSMPSRNVIQISNDLENLRDLLHVLAFSKSCHLPQASGLETLESLGGVLEASGYSTEVVALSRLQGSLQDMLQQLDLSPGC	
0.947	PEP07986-negative linker-A500 (Compound 12) (other, also called Cmpd 12; PEP07986-Negative-A500) MGSLAEAKEAANAELDSYGVSDFYKRLIDKAKTVEGVEALKDAILAALPTGGEGGEGGEGGEGGEGGEASVPIQKVQDDTKTLIKTIVTRINDISHTQSVSSKQKVTGLEFIPGLHPILTLSKMDQTLAVYQQILTSMPSRNVIQISNDLENLRDLLHVLAFSKSCHLPQASGLETLESLGGVLEASGYSTEVVALSRLQGSLQDMLQQLDLSPGC	Kd (human serum albumin): 0.27 nM; Kd (Monkey SA): 0.4 nM; Kd (Rat SA): 0.01 nM; Kd (Mouse SA): 1.94 nM; Kd (Dog SA): 1.81 nM
